{"source": "patent US9809653B2", "about": "“Anti-LAMP1 antibodies and antibody drug conjugates, and uses thereof” (SANOFI, priority 2012, dated 2017)", "key": {"[1]": {"details": "cited from earlier work"}, "Colo205 cells": {"tested_on": "Colo205 cells", "test": "Quenching of Alexa488 by anti-Alexa488 antibody, flow cytometry, internalized fraction", "assay_type": "cell-based, human", "procedure": "Quantification of internalization can also be performed by fluorescence-based quenching methods. In particular, a fluorescence-based Alexa488-quenching method has been described to analyze internalisation of targeting agents (Frejd et al. 2010, International Journal of Oncology, 36: 757-763). According to said description, internalization is calculated as the Mean fluorescence intensity (MFI) value of quenched cells (intracellular compartments only) divided by the MFI value of unquenched cells (both cell surface and intracellular compartments) at 37° C., according to the following formula: […]\nThe cells were washed twice in ice cold PBS in a cold centrifuge, and resuspended in 500 nM quenching anti-Alexa488 antibody diluted in ice cold PBS. All tubes were incubated for 1 h on ice. Without washing, all cells were fixed in two volumes of 2% paraformaldehyde for 10 min at room temperature. The paraformaldehyde was removed by one wash in PBS, and the cells were resuspended in PBS and analyzed in a flow cytometer (Guava® easyCyte 8HT Flow Cytometry System).\nAn internalization positive control experiment was done in parallel with Alexa488-labelled Transferrin (600 nM).\nMean fluorescence intensity (MFI) values obtained from the flow cytometry reading of 5×10^4 cells per tube were used for all calculations. Internalization was calculated as the MFI value of quenched cells (intracellular compartments only) divided by the MFI value of unquenched cells (both cell surface and intracellular compartments) at 37° C. as described in the formula: […]"}, "[2]": {"target": "T1, cell surface LAMP1 on Patient-derived tumor xenografts and tumor cell lines (Homo sapiens, UniProt P11279)", "T1 construct": "endogenous in cells; host or cells: enzymatically dissociated patient-derived xenograft tumour cells (e.g. CR-IGR-034P, LUN-NIC-014P, BRE-IGR-0159) and tumour cell lines", "T1 sequence (P11279 29-417)": "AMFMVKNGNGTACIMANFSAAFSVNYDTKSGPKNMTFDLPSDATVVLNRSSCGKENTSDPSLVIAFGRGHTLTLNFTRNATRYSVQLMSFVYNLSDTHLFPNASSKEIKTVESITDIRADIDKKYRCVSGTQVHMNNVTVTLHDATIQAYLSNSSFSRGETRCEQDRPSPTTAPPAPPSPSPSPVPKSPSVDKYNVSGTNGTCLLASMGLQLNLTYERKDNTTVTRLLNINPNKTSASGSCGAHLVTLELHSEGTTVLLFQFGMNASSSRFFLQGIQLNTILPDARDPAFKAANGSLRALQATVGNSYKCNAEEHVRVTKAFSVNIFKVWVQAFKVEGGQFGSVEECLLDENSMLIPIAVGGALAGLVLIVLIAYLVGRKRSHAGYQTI", "test": "Antibody binding capacity (ABC) by FACS on patient-derived xenografts and tumor cell lines", "details": "FACS", "procedure": "Antibody binding capacity of antibody was determined using Mouse IgG Calibrator kit (Biocytex #7208) or Human IgG Calibrator Kit (Biocytex #CP010) according to the manufacturer's instructions.\nThe panel of tumor cells comprises Patient-derived tumor xenografts from different origins and tumor cell lines. FIG. 2 illustrates the expression profile and Table 4 summarizes the antibody binding capacity results.\n(§1) The panel of tumor cells comprises Patient-derived tumor xenografts from different origins and tumor cell lines."}, "[3]": {"target": "T2, patient-derived xenografts from colon, lung and breast origin and tumor cell lines (Homo sapiens, UniProt P11279)", "T2 construct": "endogenous in cells; host or cells: enzymatically dissociated patient-derived xenograft tumour cells (e.g. CR-IGR-034P, LUN-NIC-014P, BRE-IGR-0159) and tumour cell lines", "T2 sequence (P11279 29-417)": "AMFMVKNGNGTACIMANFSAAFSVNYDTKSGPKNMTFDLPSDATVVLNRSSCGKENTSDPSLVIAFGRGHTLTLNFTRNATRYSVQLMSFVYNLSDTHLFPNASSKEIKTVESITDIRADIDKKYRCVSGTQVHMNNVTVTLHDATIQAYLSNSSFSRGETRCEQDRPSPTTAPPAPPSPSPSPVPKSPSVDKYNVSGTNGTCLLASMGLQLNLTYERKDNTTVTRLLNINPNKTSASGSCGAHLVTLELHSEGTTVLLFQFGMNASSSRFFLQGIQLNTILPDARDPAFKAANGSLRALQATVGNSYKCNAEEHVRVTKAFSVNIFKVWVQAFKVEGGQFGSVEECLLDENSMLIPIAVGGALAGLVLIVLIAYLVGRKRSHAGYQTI", "test": "Binding to patient-derived xenograft tumor cells by flow cytometry (mean fluorescence)", "details": "for Mean Florescence Intensity (MFI): FACS", "procedure": "Advanced human primary tumors from colon (CR-IGR-034P), lung (LUN-NIC-014P and breast (BRE-IGR-0159) indications were obtained from patient-derived xenograft (PDX) in mice as described in example 1. PDXs were enzymatically dissociated using collagenase Type IV (Invitrogen; #17104-019) and deoxyribonuclease I (Invitrogen, #18047-019) for 1 h at 4° C. Cell viability was estimated by Viacount application using Guava® easyCyte™ 8HT Flow Cytometry System. Tumoral cells were coated at 40,000 cells/well on 96-well High Bind plate (MSD L15XB-3) and 100 μL of antibody was added at 20 μg/mL for 45 min at 4° C. and washed three times with PBS 1% BSA. 100 μL of goat anti-human IgG conjugated with Alexa488 (Invitrogen; #A11013) was added for 45 min at 4° C. and washed three times with PBS 1% BSA. The antibody binding was evaluated after centrifugation and resuspension of cells by adding 200 μL/well PBS 1% BSA and read using Guava® easyCyte™ 8HT Flow Cytometry System. The mean fluorescence was recorded and plotted in the graph shown in FIG. 12 to illustrate the expression profile of the three mAbs onto the three PDXs.\nas §1"}, "recombinant human LAMP2": {"target": "T3, recombinant human LAMP2 (Homo sapiens, UniProt P13473)", "T3 construct": "purchased R&D Systems 6228-LM", "T3 sequence (P13473 with tags, fused parts or gaps)": "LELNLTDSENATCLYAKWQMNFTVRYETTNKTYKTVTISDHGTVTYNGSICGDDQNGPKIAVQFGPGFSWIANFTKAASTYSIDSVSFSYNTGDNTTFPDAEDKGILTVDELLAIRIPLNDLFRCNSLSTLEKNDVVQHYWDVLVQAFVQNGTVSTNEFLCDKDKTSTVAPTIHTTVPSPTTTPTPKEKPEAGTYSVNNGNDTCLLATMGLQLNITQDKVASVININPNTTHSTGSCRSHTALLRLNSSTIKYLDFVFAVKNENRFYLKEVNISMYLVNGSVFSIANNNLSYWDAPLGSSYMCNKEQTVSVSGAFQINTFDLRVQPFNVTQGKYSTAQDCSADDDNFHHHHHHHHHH", "test": "Specificity ELISA on recombinant human LAMP2", "assay_type": "binding", "procedure": "LAMP2 is the closest member of the LAMP family with 35% sequence identity to LAMP1. […] Anti-LAMP1 antibodies were added to the plates and detected by using rabbit anti-mouse IgG conjugated with horseradish peroxidase (Sigma; #A9044). Antibody binding was visualized by adding TMB-H2O2 buffer and read at a wavelength of 450 nm.\nLAMP2 is the closest member of the LAMP family with 35% sequence identity to LAMP1. Specificity of MAb4 was evaluated by ELISA as described in example 4.6 with either LAMP1 or LAMP2 soluble proteins, as shown in FIG. 41."}, "[4]": {"target": "T4, LAMP1 in FFPE colon adenocarcinoma PDX CR-LRB-010P and human breast carcinoma (Homo sapiens, UniProt P11279)", "T4 construct": "from tissue; host or cells: human tumoral and non-tumoral tissue sections and PDX tumour sections (frozen-OCT, AFA, FFPE)", "T4 sequence (P11279 29-417)": "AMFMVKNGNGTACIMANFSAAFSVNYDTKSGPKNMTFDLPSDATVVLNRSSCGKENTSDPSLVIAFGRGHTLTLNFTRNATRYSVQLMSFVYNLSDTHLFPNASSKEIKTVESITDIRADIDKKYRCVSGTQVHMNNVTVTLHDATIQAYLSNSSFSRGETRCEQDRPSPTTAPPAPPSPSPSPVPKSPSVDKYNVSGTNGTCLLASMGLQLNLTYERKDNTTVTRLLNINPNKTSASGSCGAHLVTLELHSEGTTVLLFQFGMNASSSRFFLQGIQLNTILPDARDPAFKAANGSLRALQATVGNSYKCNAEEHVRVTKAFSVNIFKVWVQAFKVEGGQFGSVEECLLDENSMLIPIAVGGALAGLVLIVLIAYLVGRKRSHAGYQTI", "test": "IHC on FFPE tumor tissue, LAMP1 membrane reinforcement", "details": "FFPE samples", "excerpt": "IHC analysis of tumor tissues from biobanks or from hospitals before or during patient treatment is routinely done with formalin-fixed paraffin-embedded (FFPE) samples. […] One of the reasons is probably the effect of the formalin fixative combined to the complexity of the protein. Samples processed in frozen OCT or AFA are not routinely prepared in hospitals. Therefore, there is a need to have a mAb that would allow complete and fast coverage of the FFPE tumor biobanks and hospital samples.\nRabbit polyclonal antibodies generated with peptides described in example 17.1.1 were tested by IHC on FFPE sample of colon adenocarcinoma patient derived xenograft CR-LRB-010P and human breast carcinoma. After antigen retrieval procedure and endogen biotins blocking steps, slides were incubated with the primary anti-antibody for 1 hour at 24° C. Negative controls were performed by omission of the primary antibody. The biotin free anti-rabbit UltraMap™ horseradish peroxidase (HRP) conjugate (760-4315, Ventana Medical Systems, Inc, USA) was used as secondary antibody system according to manufacturer's recommendations. A couterstaining step was done with hematoxylin (760-2037, Ventana Medical Systems, Inc, USA) and bluing reagent was applied (760-2037, Ventana Medical Systems, Inc, USA). Stained slides were dehydrated and coverslipped with cytoseal XYL (8312-4, Richard-Allan Scientific, USA).\nAs the same manner as in example 17.1.2, IHC screening was performed with the hybridoma supernatant to identify mouse monoclonal antibody showing LAMP1 membrane reinforcement on FFPE sample of colon adenocarcinoma patient derived xenograft CR-LRB-010P. The biotin free anti-mouse UltraMap™ horseradish peroxidase (HRP) conjugate (760-152, Ventana Medical Systems, Inc, USA) was used as secondary antibody system according to manufacturer's recommendations."}, "[5]": {"details": "Colo205, 4 h, 500 nM quenching anti-Alexa488 antibody"}}, "note": "Like-named read-outs stand apart in the source and are kept apart here."}
{"molecule": "transferrin: transferrin, literature internalization reference", "values": [{"measurement": "IS", "setting": "[1]; cells incubated at 37° C. for one hour", "result": 0.9}, {"measurement": "IS", "setting": "[1]; cells left on ice", "result": 0}]}
{"molecule": "Alexa488-Transferrin: internalization positive control", "values": [{"measurement": "MFI 4° C. Quencher", "setting": "Colo205 cells; [5]", "result": 8.98}, {"measurement": "MFI 37° C. Quencher", "setting": "Colo205 cells; [5]", "result": 1210}, {"measurement": "MFI 4° C.", "setting": "Colo205 cells; Colo205, 4 h, unquenched", "result": 35.78}, {"measurement": "MFI 37° C.", "setting": "Colo205 cells; Colo205, 4 h, unquenched", "result": 1228}, {"measurement": "total cell fluorescence that was intracellular", "setting": "Colo205 cells; Colo205, after 4 h at 37° C.", "result": "about 98.5%"}]}
{"molecule": "MAb4: mouse monoclonal anti-LAMP1 antibody from hybridoma 88LAMP1-2, VH SEQ ID NO: 88, VL SEQ ID NO: 89 (antibody, listed as Mus musculus, V domains shown) VH: QVQLQQSGAELVRPGTSVKVSCKASGYAFTNYLIEWVKQRPGQGLEWIGVINPGSGGTNYNEKFKGKATLTADKSSSTAYMQLSSLTSDDSAVYFCARYRSYDWYFDVWGAGTTVTVSS VL: DIQMTQSPASLSASVGETVTITCRVSGNIHNYLAWYQQKQGKSPQLLVYNAKTLADGVPSRFSGSGSGTQYSLKINSLQPEDFGSYYCQHFWSNPYTFGGGTKLEIK", "values": [{"measurement": "Antibody Binding Capacity (ABC)", "setting": "[2]; CR-IGR-034P/colorectal PDX", "result": "260 000"}, {"measurement": "Antibody Binding Capacity (ABC)", "setting": "[2]; Colo205/colon cell line", "result": 3000}, {"measurement": "Antibody Binding Capacity (ABC)", "setting": "[2]; LUN-NIC-006/lung PDX", "result": "92 000"}, {"measurement": "Antibody Binding Capacity (ABC)", "setting": "[2]; LUN-NIC-033/lung PDX", "result": "87 000"}, {"measurement": "Mean Florescence Intensity (MFI)", "setting": "[3]; BRE-IGR-0159/breast PDX", "result": 400}, {"measurement": "Mean Florescence Intensity (MFI)", "setting": "[3]; CR-IGR-034P/colorectal PDX", "result": 424}, {"measurement": "Mean Florescence Intensity (MFI)", "setting": "[3]; Colo205/colon cell line", "result": 7}, {"measurement": "Mean Florescence Intensity (MFI)", "setting": "[3]; LUN-NIC-006/lung PDX", "result": 162}, {"measurement": "Mean Florescence Intensity (MFI)", "setting": "[3]; LUN-NIC-033/lung PDX", "result": 154}, {"measurement": "binding to tumor cells by flow cytometry", "setting": "[3]; PDX and tumor cell lines", "result": "able of binding to multiple tumor cells"}, {"measurement": "binding to LAMP2", "setting": "recombinant human LAMP2", "result": "No binding"}, {"measurement": "difference between the EC50 towards LAMP1 versus LAMP2", "setting": "recombinant human LAMP2", "result": "more than 100 fold"}, {"measurement": "LAMP1 membrane reinforcement in FFPE format by IHC", "setting": "[4]", "result": "displayed membrane reinforcement immunostaining"}]}
